Experimental findings from patent US20080131422A1 (JURIDICAL FOUNDATION THE CHEMO SERO THERAPEUTIC RESEARCH …, published 2008) are described below.

This test addresses T1, Aβ42 peptide (amyloid β peptide 1-42), soluble (UniProt P05067 672-713).
T1 construct: domain: Aβ1-42; also called Aβ1-42; soluble Aβ42 peptide
Nature of the test: ELISA; tat-VL coated, Aβ42 peptide at 100 ng/well, anti-Aβ42 monoclonal antibody detection. Background: In an ELISA, binding on a coated surface is turned into a signal by an enzyme label.

T1 sequence (P05067 672-713 limits assumed): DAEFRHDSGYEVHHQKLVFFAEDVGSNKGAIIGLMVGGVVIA

B1: tat peptide-fused human-derived anti-Aβ42 peptide VL chain (other)
chain: MGYGRKKRRQRRRGDIVMTQSPDSLAVSLGERATINCKSSQSVIHNSNVKNCLAWYQQKLGQPPNLLIYWASTRESGVPDRFSGSGSGTDFTLKISRVEAEDVGVYYCMQSIQLPRTFGQGTKVEIKR
notes: also called tat-VL chain; tat peptide-fused VL chain
For the molecule B1, the binding result was “binds”.
